# Source: US20250312416A1, “METHOD AND PHARMACEUTICAL COMPOSITION FOR CARTILAGE REGENERATION” (FAR EASTERN MEMORIAL HOSPITAL, priority 2024, published 2025)
# What was measured:
# [1] = test system: IPFP-MSC from OA patients; assay: Alcian blue staining of chondrogenic pellets (GAG), IPFP-MSC; assay type: cell-based, human; settings: IPFP-MSC during chondrogenesis, day 3
# Description: (§1) The GSE140861 microarray database was used for analyzing the potential genes from human bone marrow cells at different time points during chondrogenesis. Whole-genome expression analysis was carried out using Illumina (CA) Human Ref-8v3 or Human HT-12 v4 BeadArrays™. It was first selected the secreted protein from this database and further verified the functions of the candidate genes. The numbers of significant differences in gene expressions of different time points from human bone marrow stem cells during chondrogenesis. […] Alcian blue staining analyzed the chondrogenic differentiation of pellets with varying ratios of IPFP-MSC. CXCL14 increased the GAG deposition in IPFP-MSC during chondrogenesis on day 3. FIG. 1C provides the fluorescence confocal microscopy images showing IPFP-MSC spheroids from OA patients treated with CXCL14 for 7 days; wherein the nuclei were stained with DAPI (blue), and merged images display SOX9 (red), type II collagen (green), and aggrecan (light blue) labeling. […] The chondrogenic progenitor cells in the human IPFP-MSC from OA patients were detected using SOX9 and Collagen type II biomarkers. MSCs were assessed by flow cytometry for SOX9 and Collagen type II biomarkers indicative of human MSCs on day 1. In addition, Alcian blue staining analyzed the chondrogenic differentiation of pellets with IPFP-MSC. […]
# [2] = test system: tibial articular cartilage of WT mice after ACLT; assay: ACLT-induced OA mouse model, Safranin O / collagen II staining and OARSI score (CXCL14 protein); assay type: in vivo; settings: for OARSI score: ACLT group 5.5, sham group 0.17
# [3] = test system: IPFP-MSC spheroids from OA patients; assay: Fluorescence confocal microscopy of IPFP-MSC spheroids (SOX9, type II collagen, aggrecan); assay type: cell-based, human; settings: MSC spheroids during chondrogenesis, 7 days
# Description: as §1
# [4] = test system: ADSC spheroids; assay: Immunofluorescence / confocal microscopy of chondrogenic proteins in ADSC spheroids; assay type: cell-based, human; settings: ADSC spheroids, 7 days
# Description: Both side views (observed in the x and z plane) and bottom views (observed in the […]) of the images are provided. The scale bar is set at 500 μm.
# ADSCs were treated with CXCL14-P, CXCL14-P1, or CXCL14-P2, respectively, at a concentration of 10 ng for 24 hours, after which the medium was replaced with fresh peptide-free medium. On day 7, total RNA was extracted, and real-time PCR analysis was performed to assess the expression levels of key chondrogenic markers, including ACAN, COL2A1, SOX9, and COMP. Gene expression levels were quantified using a LightCycler system (Roche Applied Science), with fold changes calculated relative to untreated control ADSCs. […] Immunofluorescence staining was performed to detect Collagen Type II, SOX9, COMP, and nuclei (Hoechst 33342) in 3D ADSC spheroids (middle panel).
# (FIG. 3). […] Moreover, fluorescence confocal microscopy was employed to detect protein patterns and confirm the levels of SOX9, type II collagen, and aggrecan proteins in ADSC spheroids. […] Finally, to investigate whether the CXCR4 receptor of CXCL12/CXCL14 confers chondrogenic signaling during chondrogenesis, we treated ADSCs with a CXCR4 agonist for 7 days.
# Extracellular vesicles (EVs) derived from MSCs hold significant potential for repairing damaged tissues. In this study, we explored whether EVs from ADSCs could effectively enhance chondrogenesis and promote cartilage repair. Immunofluorescence staining was used to assess protein levels of Collagen Type II (green), SOX9 (red), COMP (indigo), and Hoechst 33342 (gray) in 3D ADSC spheroids treated with MSC-EVs derived from CXCL14 peptide-primed ADSCs (CXCL14-P-MSC-EVs) at various time points. […] To further explore the cartilage repair functions of EVs from CXCL14-P-treated ADSCs and the encapsulation of the transcription factor SOX9 within MSCs and purified EVs, we performed in vivo studies.
molecule,measurement,setting,value
"CXCL14: small cytokine belonging to the CXC chemokine family, also known as BRAK; used as recombinant protein (protein, UniProt O95715 35-111, looked up) C-X-C motif chemokine 14: SKCKCSRKGPKIRYSDVKKLEMKPKYPHCEEKMVIITTKSVSRYRGQEHCLHPKLQSTKRFIKWYNAWNEKRRVYEE",GAG deposition (Alcian blue),[1],increased
same,OARSI score,[2]; CXCL14 10 ng,2.7
same,OARSI score,[2]; CXCL14 20 ng,1
same,cartilage repair (staining GAG content and type II collagen),"[2]; dose-dependent, ACLT-induced OA",can stimulate cartilage repair
same,"levels of SOX9, type II collagen, and aggrecan",[3],elevated levels
same,"expression of SOX9, type II collagen, and aggrecan",[4],notably induced
